The DeepSol protein solubility set

Test: soluble on expression in E. coli; label from the status in PepcDB or PDB records

## MNSIRSSPAIGENRTVYIGSYDGKLYAFNPDGTLKWSYTTGNQITGSATIGADGTICIGSYDRRLYTINPDGTLKWSYTTGNQIFSSAAIGEDGTIYVGSRDNKLYALNPDGTLKWSYTTGNQIFSSAAIGEDLEHHHHHH
  soluble on expression in E. coli: not soluble

## MSLNVLSVSSEIYPLIKTGGLADVVGALPIALEAHGVRTRTLIPGYPAVKAAVTDPVKCFEFTDLLGEKADLLEVQHERLDLLILDAPAYYERSGGPYLGQTGKDYPDNWKRFAALSLAAARIGAGVLPGWRPDMVHAHDWQAAMTPVYMRYAETPEIPSLLTIHNIAFQGQFGANIFSKLALPAHAFGMEGIEYYNDVSFLKGGLQTATALSTVSPSYAEEILTAEFGMGLEGVIGSRAHVLHGIVNGIDADVWNPATDHLIHDNYSAANLKNRALNKKAVAEHFRIDDDGSPLFCVISRLTWQKGIDLMAEAVDEIVSLGGRLVVLGAGDVALEGALLAAASRHHGRVGVAIGYNEPLSHLMQAGCDAIIIPSRFEPCGLTQLYALRYGCIPVVARTGGLADTVIDANHAALASKAATGVQFSPVTLDGLKQAIRRTVRYYHDPKLWTQMQKLGMKSDVSWEKSAGLYAALYSQLISKGHEGHHHHHH
  soluble on expression in E. coli: soluble

## MSLKFIVIKIGGSTLSDMHPSIINNIKHLRSNNIYPIIVHGGGPFINEALSNQQIEPHFVNGLRVTDKATMTITKHTLIADVNTALVAQFNQHQCSAIGLCGLDAQLFEITSFDQQYGYVGVPTALNKDALQYLCTKFVPIINSIGFNNHDGEFYNINADTLAYFIASSLKAPIYVLSNIAGVLINDVVIPQLPLVDIHQYIEHGDIYGGMIPKVLDAKNAIENGCPKVIIASGNKPNIIESIYNNDFVGTTILNSEGHHHHHH
  soluble on expression in E. coli: soluble

## MSLKSKEKLFIANVADSNLNEADKDKAKNEIAKLNASQVVATTLASSVRETEKQEKIETDICNENAISESKLDGIDDLEFVDENYYISPSLDTLATLSKYEIQKVENLVVGNKQYGKIEFLDPVDLSDIPLGSICDDLVVFQPMSVLLYNNSTNVPEKGKGLNVRARISCYNCYPLDKSTRKPIKDPNHRIMERYSEKLKKIPHTHFESYDPASGTYCFTVDHALEGHHHHHH
  soluble on expression in E. coli: soluble

## MKIEHLQHPTTHQLDQLMTIWLSGNLTAHDFVSADYWRQQAPLVREALQSAELIVGLTDGPEAYILGFIGLQNDYIAGIFICNDAQHQGLGTALLATAQADYHQLQLNVYVANRPAIAFYHYHGFRVIDQASDQATQQSEYTMQWQR
  soluble on expression in E. coli: not soluble

## MPANARSHAVLTTESKVTIRGQTTIPAPVREALKLKPGQDSIHYEILPGGQVFMCRLGDEQEDHTMNAFLRFLDADIQNNPQKTRPFNIQQGKKLVAGMDVNIDDEIGDDE
  soluble on expression in E. coli: soluble

## MSLHLYTKHIYFIGGKGGVGKSTSAASFAWRCAERGEKTLLISTDPAHNLGDLFHTEIGAKHKKITDNLFATEIDPEQETRRYIQSVKDNLRGMVKSTMLDEVNRQIDAAAATPGADEAAMFNAISSIVLDEQGTYDKLVFDTAPTGHTIRLLTLPEMMGVWIDGMVKKRKKINENYSNLLNDGEPVDDPIYDTLQQRKERFAAVRNVLLDPKKTGFMFVLIPERLPILETEKAVKLLAKHDLHVETLIINKILPDVADGQFLEKRRQIEQRYLQQIHNTFRKQTLLRVPLFPEDIGSIEALYHFARYLEPTAEGHHHHHH
  soluble on expression in E. coli: soluble

## MVLLLIVNKYWKVNDMKNEIQKNMDKYNPWHEDDFESYEDIARDVSLTTDKTFIEHYLLEVYSEENGHFDQENVHAMIEEIKNAI
  soluble on expression in E. coli: not soluble

## MSLSTLKRDHIKKNLRDTEYDVVIVGGGITGAGIALDASNRGMKVALVEMQDFAQGTSSRSTKLVHGGLRYLKQLQVGVVAETGKERAIVYENGPHVTTPEWMLLPMHKGGTFGKFSTSIGLAMYDRLAGVKKSERKKMLSKQETLNKEPLVKRDGLKGGGYYVEYRTDDARLTIEVMKKAAENGAEILNYTKSEHFTYDSNKKVNGIEVLDMIDGETYAIKAKKVINASGPWVDEVRSGDYARNNKQLRLTKGVHVVIDQSKFPLGQAVYFDTEKDGRMIFAIPREGKAYVGTTDTFYDNEKATPLTTQEDRDYLINAINYMFPTVNVKDEDIESTWAGIRPLILEKGKDPSEISRKDEVWEGESGLLTIAGGKLTGYRHMALEIVDLLAKRLKQEYGLKFESCATKNLKISGGDVGGSKNFEHFVEQKVDAAKGFGIDEDVARRLASKYGSNVDQLFNIAQTAPYHDSKLPLEIYVELVYSIQQEMVYKPTDFLVRRSGKLYFNIQDVLDYKNAVIDVMADMLNYSETQKEAYTEEVEVAIDEARTGNDQPATKALEHHHHHH
  soluble on expression in E. coli: soluble

## MTLKGRIHSFESFGTLDGPGIRFVVFMQGCPLRCIYCHNRDTWDVNAGSEYTPRQVIDEMMKYIDYIKVSGGGITVTGGEPVLQADFVAEVFRLAKEQGVHTALDTNGFADIEKVERLIKYTDLVLLDIKHAREDKHKIITGVSNEKIKRFALYLSDQGVPIWIRYVLVPGYTDDEDDLKMAADFIKKLKTVEKIEVLPYHNMGAYKWEKLGQKYMLEGVKGPSAQEVEKAKRILSGK
  soluble on expression in E. coli: soluble

## CTPKPKSAQPVAEEFFHNVAAQDFDAAAQLTDQDDSARELLSRSWEGLQAEGLDVSLNKVDAKDTVATAKYTLTWKLPKDRTLSYDTSMTLNRINDQWTIRWQPAAVHPKLAANQHLELRAINAERASVVSSDGAEVLVPGVQYRLIADTQHIIDKAATAQTIATHLRAARAADETVPELSASDIQQALETNRGSYSLAVVNERAGDSIKQALAGVSGIRLNKEAAMVNKDPNFAPDVIRRVSSLVNDQLAGANGWSVDAVTQDGVSMQTIERHAPQVAPAIRISLNHNVQVAAERAVNLRKDKQSMLVAIRPSTGEILAIAQSDLADKQGDLALNGQYPPGSTFKIVTASAGIQDQGLNADSIVPCPGTMNIYGRTVTNYNGFSLGNVPLEKAFARSCNTTFANISEQLNKGQLKEIGRDFGIGIDYDIPGLNTLTGSIPQGDTELARTEAGYGQGE
  soluble on expression in E. coli: not soluble

## SLERPPALAMPMPTEGTPPPLSGTPIPVPAYFRHAEPGFSLKRPRGLSRSLPPPPPAKGSIPISRLFPPRTPGWHQLQPRRVSFRGEASETLQSPGYDPSRPESFFQQSFQRLSRLGHGSYGEVFKVRSKEDGRLYAVKRSMSPFRGPKDRARKLAEVGSHEKVGQHPCCVRLEQAWEEGGILYLQTELCGPSLQQHCEAWGASLPEAQVWGYLRDTLLALAHLHSQGLVHLDVKPANIFLGPRGRCKLGDFGLLVELGTAGAGEVQEGDPRYMAPELLQGSYGTAADVFSLGLTILEVACNMELPHGGEGWQQLRQGYLPPEFTAGLSSELRSVLVMMLEPDPKLRATAEALLALPVLRQPRAWGVLWCMAAEALSRGWALWQALLALLCWLWHGLAHPASWLQPLGPPATPPGSPPCSLLLDSSLSSNWDDDSLGPSLSPEAVLARTVGSTSTPRSRCTPRDALDLSDINSEPPRGSFPSFEPRNLLSLFEDTLDPT
  soluble on expression in E. coli: soluble

## MGSDKIHHHHHHMIYIGLTGWGDHDELYTMGTKPSEKLYTYGSHFPTVEVDSSFYAIQPKRNMEKWASDTPDCFRFVVKAYQGLTGHQRGEIPFSSKEDMFAAFVESLQPLLESNKLAMVLFQFPPWFDCTKEHVRYLRYCKQQMGKIPVALEFRHQSWFRPSVRERTLSFMREEGWIHSICDEPQGGEGSVPTVLVPSNEENVLVRFHGRNVEGWRRPQEGNWREVRYLYRYSKEELAEWAEHLKQLAAQVKDVYVLFNNNSGGDAAANAKQMLELLEIEYHGLTPKQLNLFE
  soluble on expression in E. coli: not soluble

## MGSDKIHHHHHHMNYFSYLSLEERQNFFYKEPLSFSKNIEKEQLAYALGATLYTPGTKETIAEDIIRKKHVEATSIIFCLEDSISDKEVKFAEQNIVFQIQQISNLVSDNILNQADIPLLFIRVRQPSQMRTIVTELGSAVHCLCGFVFPKFTPVNGKSYIDQLAYINKLYSLSLYGMPILESPEIMYRETRVKSLLQIKDLLDSYRDYILNVRIGATDFSSIFGIRRNKHTPIYHITVVRDCISDIINIFSRATNGYVISGCVWEYFSNDYEEGLIQEVSLDHANGLIGKTVIHPSHIKVVQAMHIVTMEDYLDARSILQHANTYNGVLKSSFANKMNEVKPHYNWARKTILKSNIYGVLHENKQFTDLLITNAKQHV
  soluble on expression in E. coli: not soluble

## MSQFFYIHPDNPQQRLINQAVEIVRKGGVIVYPTDSGYALGCKIEDKNAMERICRIRQLPDGHNFTLMCRDLSELSTYSFVDNVAFRLMKNNTPGNYTFILKGTKEVPRRLLQEKRKTIGMRVPSNPIAQALLEALGEPMLSTSLMLPGSEFTESDPEEIKDRLEKQVDLIIHGGYLGQKPTTVIDLTDDTPVVVREGVGDVKPFL
  soluble on expression in E. coli: soluble

## MAIETILVINKSGGLIYQRNFTNDEQKLNSNEYLILASTLHGVFAIASQLTPKALQLTQQTNIENTIPYIPYVGMSSNRSDTRNGGGNNNKHTNNEKLGSFKGDDFFKEPFTNWNKSGLRQLCTDQFTMFIYQTLTGLKFVAISSSVMPQRQPTIATTDKPDRPKSTSNLAIQIADNFLRKVYCLYSDYVMKDPSYSMEMPIRSNLFDEKVKKMVENLQ
  soluble on expression in E. coli: soluble

## MGSDKIHHHHHHMNTLTDILNRPRKLRPECLLIVGDSNMGKTTIIHEFARQYYTKTVSDADMDLLSVTKPVLPILAPAKANVKELYINILNHFFVPFRASDPEAKLRNQAVHLMRKYETKMLIIDEIHNCLTGSAKLLPEVMNTLKNLSNELSLNIVGVGTREAITILHTDPQYASRFDVVNLPKWELNQDFLRLLVSYVRLLPLKKQSNLASKEIATLIFEVSGGNLGDLNRLLVECAKEAILQGDEEITYDIVHKFKWLKPTEGLRNIRNINLSLS
  soluble on expression in E. coli: not soluble

## MKEIELIATAAAGVESVVKHEVKKLGFKDITVDNGKIMFKGDISSIPRANLWLRSADRVLLKMGEFEALTFEELFDKTYALPWDQWITSDGKFTVLGKSVKSKLFSISDCQAIVKKAVVEKLKSKYHVEWFEESGPEYTIQVALHKDIATLTIDTSGTALHKRGYRAKNVEAPIKETLASAMILISYWNKRKPLWDCFCGSGTIPIEAALIGRNIAPGLNRTFASEEWPAIGKDIWKQERALALRAIDHDIKLKIYGSDINPDAIELAKENACLAGVDDCIEFFVSDFRNVNIKEDYGVIICNPPYGERIGEQQEVETINKDMGKTFSKYDTWSKYIITPFENFERLYGKKADKKRKFYNGNIKVDYYQYFGPKPTNT
  soluble on expression in E. coli: soluble

## MENLYKELGDQSLHKDFCQTVASTFSCSVNRNGKSSITWKQVQIWFQEKLKHQSQPKSKTLPSPPLQIHDLSNPSSYASNASNATFVGNSTFVQTRKGKASDLADLAFEAKSARDYAWYDVSSFLTYRVLRTGELEVRVRFSGFDNRHDEWVNVKTSVRERSIPVEPSECGRVNVGDLLLCFQEREDQALYCDGHVLNIKRGIHDHARCNCVFLVRYELDNTEESLGLERICRRPEE
  soluble on expression in E. coli: not soluble

## TDKVRQNEKQKRSKALAQTQVNKRLLNEHGLNTPPMMKDEADQFVVSPTNWAGIIDQALAPPRTRKSYQKSMVSISGTKAVIETRSSKN
  soluble on expression in E. coli: not soluble

## GMSHVSYAEPPAQGWDIHCHTVFSDGTETPRTLVEQARKLGLHGVAIADHDTTAGWDEATEASEEIGLPLLLGTEITAVDEDVSVHMLAFQYDPSNEHISSMFANTRAARLRRTKRMVERLSQDFPITWDDVLAQVKEGERTTIGRPHIADALVAAGVYETRSDAFADAVSAKSKYYIPTPSPSTHEVIAAVKGAGGVVVAAHAGDPQRNRRLLSDEQLDAMIADGLDGLEVWHRGNPPEQRERLLTIAARHDLLVTGGSDWHGKGKPNGLGENLTDDDTVREILCRGVDLIGRVGSSHAA
  soluble on expression in E. coli: soluble
